In PMC1888729:

B1: U2AF65 (co-purified from HEK-293E), P26368 1-475 (natural protein)
chain: MSDFDEFERQLNENKQERDKENRHRKRSHSRSRSRDRKRRSRSRDRRNRDQRSASRDRRRRSKPLTRGAKEEHGGLIRSPRHEKKKKVRKYWDVPPPGFEHITPMQYKAMQAAGQIPATALLPTMTPDGLAVTPTPVPVVGSQMTRQARRLYVGNIPFGITEEAMMDFFNAQMRLGGLTQAPGNPVLAVQINQDKNFAFLEFRSVDETTQAMAFDGIIFQGQSLKIRRPHDYQPLPGMSENPSVYVPGVVSTVVPDSAHKLFIGGLPNYLNDDQVKELLTSFGPLKAFNLVKDSATGLSKGYAFCEYVDINVTDQAIAGLNGMQLGDKKLLVQRASVGAKNATLVSPPSTINQTPVTLQVPGLMSSQVQMGGHPTEVLCLMNMVLPEELLDDEEYEEIVEDVRDECSKYGLVKSIEIPRPVDGVEVPGCGKIFVEFTSVFDCQKAMQGLTGRKFANRVVVTKYCDPDSYHRRDFW
B2: U2AF65 (recombinant human, baculovirus-infected SF9 cells), P26368 1-475 (natural protein)
chain: B1 chain

Tests used:
[1] = biological target: T1, His-tagged U2AF35 (HEK-293E), Q01081; experiment: pull-down; His-tagged U2AF35 expressed in 293E cells, lysate (50 mM Tris-HCl pH 8, 1% NP-40, 5 mM imidazole) on Ni-NTA agarose 1 h at 4°C, wash 0.5 M NaCl, eluted with 0.5 M imidazole; western blot; amounts by Coomassie stain against BSA; conditions: remark: other sources report otherwise
T1 chain: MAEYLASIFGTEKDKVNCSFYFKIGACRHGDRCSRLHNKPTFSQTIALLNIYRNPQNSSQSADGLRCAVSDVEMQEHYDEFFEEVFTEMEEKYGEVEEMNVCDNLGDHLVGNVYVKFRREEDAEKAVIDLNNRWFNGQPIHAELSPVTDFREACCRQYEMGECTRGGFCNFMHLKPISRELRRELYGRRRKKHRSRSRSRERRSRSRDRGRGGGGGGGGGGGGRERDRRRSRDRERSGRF

[2] = biological target: T2, U2AF35 (recombinant human, baculovirus-infected SF9 cells) (human), Q01081; experiment: co-purification; human U2AF65/35 heterodimer purified from baculovirus-infected SF9 cells as described previously; conditions: remark: other sources report otherwise
T2 chain: T1 chain

Row | Binder | stoichiometry N (U2AF35 per U2AF65) [1] | stoichiometry N (U2AF35 per U2AF65) [2]
1 | B1 | 3.5 | 
2 | B2 |  | 1
